In patent publication US20190328889A1:

Experiments:
[1] = molecular target: Fc receptors on U937 cells (human; IFNγ-activated or non-activated) (human); assay: flow cytometry competition on IFNγ-activated U937 cells; competitor 1 µM BDB; Nip228 at 0.001-5 µM
[2] = molecular target: Fc receptors on U937 cells (human; IFNγ-activated or non-activated) (human); assay: flow cytometry competition on IFNγ-activated U937 cells; competitor 1 µM cp33; Nip228 at 0.001-5 µM

IgG1 concentration above which the peptide is displaced [1]: 10 nM
IgG1 concentration above which the peptide is displaced [2]: 10 nM
Substance: control monoclonal human IgG1 (Nip228, MedImmune Ltd), unlabelled (antibody)
